Results: US20170015748A1 (NATIONAL RESEARCH COUNCIL OF CANADA, published 2017)

What follows are binders tested against T1, recombinant extracellular portion of human IGF1R (IGF1R^933-His fragment) (human, UniProt P08069 31-933) (assay: SPR (BIACORE 3000), human IGF1R immobilized on CM5, VHH injected, 1:1 model, 25 C).
T1 construct: It holds a furin site (RKRR) between the alpha and beta subunits, so the protein may be cleaved into two disulphide-linked chains; also called h-IGF1R; recombinant human IGF1R; not shown: His tag from vector pCDN4/myc-His
T1 sequence (P08069 31-933): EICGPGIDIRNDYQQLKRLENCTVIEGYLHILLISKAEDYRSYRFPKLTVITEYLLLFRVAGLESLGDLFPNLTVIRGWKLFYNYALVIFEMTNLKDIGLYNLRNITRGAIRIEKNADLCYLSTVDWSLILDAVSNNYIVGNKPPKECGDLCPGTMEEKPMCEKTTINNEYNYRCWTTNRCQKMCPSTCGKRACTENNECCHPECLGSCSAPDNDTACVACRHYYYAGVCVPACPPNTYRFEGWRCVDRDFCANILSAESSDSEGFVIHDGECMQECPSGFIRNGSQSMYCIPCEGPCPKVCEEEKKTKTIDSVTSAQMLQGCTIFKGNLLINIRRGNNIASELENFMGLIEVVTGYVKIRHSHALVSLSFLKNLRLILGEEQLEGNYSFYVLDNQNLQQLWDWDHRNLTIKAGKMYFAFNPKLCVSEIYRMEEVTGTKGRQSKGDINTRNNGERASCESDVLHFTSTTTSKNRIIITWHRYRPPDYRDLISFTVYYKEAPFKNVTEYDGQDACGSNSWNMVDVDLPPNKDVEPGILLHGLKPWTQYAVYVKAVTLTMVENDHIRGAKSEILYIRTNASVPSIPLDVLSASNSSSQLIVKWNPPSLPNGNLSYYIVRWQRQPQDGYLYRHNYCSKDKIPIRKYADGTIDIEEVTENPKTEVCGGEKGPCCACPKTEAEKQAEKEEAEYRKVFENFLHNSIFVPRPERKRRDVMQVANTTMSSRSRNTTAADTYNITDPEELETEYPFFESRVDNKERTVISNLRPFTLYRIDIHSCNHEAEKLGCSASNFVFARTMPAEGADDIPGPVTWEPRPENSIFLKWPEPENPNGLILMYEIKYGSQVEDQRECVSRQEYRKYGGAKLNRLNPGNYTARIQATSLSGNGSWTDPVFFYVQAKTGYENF
Method: Approximately 3000 Resonance Units (RU) of recombinant human IGF1R (R&D Systems) were immobilized on a Sensor chip CM5. Immobilization was carried out at a concentration of 10 μg/ml in 10 mM acetate at pH4.0 using the amine coupling kit supplied by the manufacturer. The remaining binding sites were blocked with 1M ethanolamine pH 8.5. An ethanolamine blocked surface was used as a reference surface. For the binding studies, analyses were carried out at 25° C. in 10 mM HEPES, pH7.4 containing 150 mM NaCl, 3 mM EDTA and 0.005% surfactant P20 (Polyoxyethylenesorbitan; GE Healthcare). […] Surfaces were regenerated with 10 mM glycine pH 2.0 with a contact time of 24 seconds. Data were analyzed with BIAevaluation 4.1 software (GE Healthcare).

Binder	Kd [nM]	koff [s⁻¹]	kon [M⁻¹ s⁻¹]
IGF1R-5_H3 (VHH, Humanized variant of IGF1R-5, expressed from pSJF2H in E. coli) VHH: QVQLVESGGGLVQPGGSLRLSCAASGRTIDNYAMAWSRQAPGKGLEFVATIDWGDGGTRYANSVKGRFTISRDNSKNTMYLQMNSLRAEDTAVYYCAMARQSRVNLDVARYDYWGQGTLVTVSS	0.8	0.00041	520000
IGF1R-5_H2 (VHH, Humanized variant of IGF1R-5, expressed from pSJF2H in E. coli; also called IGF1R H2) VHH: QVQLVESGGGLVQPGGSLRLSCAASGRTIDNYAMAWVRQAPGKGLEWVATIDWGDGGTRYANSVKGRFTISRDNSKNTMYLQMNSLRAEDTAVYYCAMARQSRVNLDVARYDYWGQGTLVTVSS	7.5	0.0029	380000
IGF1R-5_H5 (VHH, Humanized variant of IGF1R-5, expressed from pSJF2H in E. coli) VHH: QVQLVESGGGLVQPGGSLRLSCAASGRTIDNYAMAWSRQAPGKDREFVATIDWGDGGTRYANSVKGRFTISRDNSKGTMYLQMNSLRAEDTAVYSCAMARQSRVNLDVARYDYWGQGTLVTVSS	1.6	0.0008	500000

More lines, in order of falling Kd, values ahead:

Kd [nM]	koff [s⁻¹]	kon [M⁻¹ s⁻¹]	Binder
11	0.0043	390000	IGF1R-5_H1 (VHH, Humanized variant of IGF1R-5, expressed from pSJF2H in E. coli) VHH: EVQLVESGGGLVQPGGSLRLSCAASGRTIDNYAMAWVRQAPGKGLEWVSTIDWGDGGTRYANSVKGRFTISRDNSKNTLYLQMNSLRAEDTAVYYCAMARQSRVNLDVARYDYWGQGTLVTVSS
1.7	0.00072	430000	IGF1R-5_H6 (VHH, Humanized variant of IGF1R-5, expressed from pSJF2H in E. coli) VHH: EVQLVESGGGLVQPGGSLRLSCAASGRTIDNYAMAWSRQAPGKDREFVSTIDWGDGGTRYANSVKGRFTISRDNSKNTLYLQMNSLRAEDTAVYYCAMARQSRVNLDVARYDYWGQGTLVTVSS
0.6	0.00034	530000	IGF1R-5 VHH (VHH, Llama VHH expressed in E. coli TG1 from vector pSJF2H and purified by IMAC; Monomeric by SEC; also called anti-IGF1R VHH IGF1R-5; wild-type IGF1R-5) VHH: QVKLEESGGGLVQAGGSLRLSCAASGRTIDNYAMAWSRQAPGKDREFVATIDWGDGGARYANSVKGRFTISRDNAKGTMYLQMNNLEPEDTAVYSCAMARQSRVNLDVARYDYWGQGTQVTVSS
